Legend:
[1] = test system: haemagglutinin on whole H9N2 virus (Influenza A virus H9N2 (avian; strain not given in material)); experiment: capillary electrophoresis
[2] = test system: purified haemagglutinin H9 (H9-HA) (Influenza A virus H9N2 (avian; strain not given in material)); experiment: capillary electrophoresis
[3] = test system: haemagglutinin on whole H9N2 virus (Influenza A virus H9N2 (avian; strain not given in material)); experiment: competition ELAA

Row | Sequence | Kd [1] [µM] | Kd [2] [µM] | inhibition of binding [3] [% inhibition]
1 | GCTGCAATACTCATGGACAGCCTCCTGGGGTCAGGCTCAGACATTGATAAAGCGACATCGGTCTGGAGTACGACCCTGAA [A9] | 0.0425 | 0.0462 | 76.3
2 | GCTGCAATACTCATGGACAGCGGGGGTCTCGCCCTCCCGGCGGCCTCGGCGAGCGTCGGCGTCTGGAGTACGACCCTGAA [A6] | – | 0.0206 | –
